Reference: patent US20240043568A1
pEC50, pKd: −log10 of the molar value.

Tests used:
[1] = molecular target: recombinant human GPC3 protein (human) (UniProt P51654); experiment: BLI (Octet), antibody on Protein A probe
[2] = molecular target: recombinant GST-human GPC3 stem protein (human); experiment: ELISA, coated antigen 1 µg/ml
[3] = molecular target: recombinant human GPC3 protein (human) (UniProt P51654); experiment: ELISA, coated antigen 1 µg/ml
[4] = molecular target: recombinant cynomolgus monkey GPC3 full-length protein (cynomolgus monkey); experiment: ELISA, coated antigen 1 µg/ml
[5] = molecular target: human GPC3 on cells (human) (UniProt P51654); experiment: flow cytometry, CHO-human GPC3 cells
[6] = molecular target: recombinant human GPC3 protein (human) (UniProt P51654); experiment: BLI (Octet), antibody on Protein A probe; remark: listed apart in the source
[7] = molecular target: recombinant cynomolgus monkey GPC3 full-length protein (cynomolgus monkey); experiment: ELISA on coated recombinant cynomolgus monkey GPC3 protein, OD450 [panel Recombinant cynomolgus monkey GPC3 protein]
[8] = molecular target: recombinant human GPC3 protein (human) (UniProt P51654); experiment: ELISA on coated recombinant human GPC3 protein, OD450 [panel Recombinant human GPC3 protein]
[9] = molecular target: recombinant human GPC3 protein (human) (UniProt P51654); experiment: SPR (Biacore T200), antibody on Protein A chip, GPC3 as analyte
[10] = molecular target: recombinant cynomolgus monkey GPC3 full-length protein (cynomolgus monkey); experiment: as above
[11] = molecular target: human GPC3 on cells (human) (UniProt P51654); experiment: flow cytometry on human GPC3-CHO stably-transfected cells, MFI
[12] = molecular target: human CD3 on T cells (human) (UniProt P07766); experiment: flow cytometry, Jurkat cells
[13] = molecular target: human CD3 on T cells (human) (UniProt P07766); experiment: flow cytometry, human peripheral blood CD4+ T cells
[14] = molecular target: human CD3 on T cells (human) (UniProt P07766); experiment: flow cytometry, human peripheral blood CD8+ T cells

Sequence of recombinant GST-human GPC3 stem protein (human) (chain, as listed by the source limits assumed, form in doubt): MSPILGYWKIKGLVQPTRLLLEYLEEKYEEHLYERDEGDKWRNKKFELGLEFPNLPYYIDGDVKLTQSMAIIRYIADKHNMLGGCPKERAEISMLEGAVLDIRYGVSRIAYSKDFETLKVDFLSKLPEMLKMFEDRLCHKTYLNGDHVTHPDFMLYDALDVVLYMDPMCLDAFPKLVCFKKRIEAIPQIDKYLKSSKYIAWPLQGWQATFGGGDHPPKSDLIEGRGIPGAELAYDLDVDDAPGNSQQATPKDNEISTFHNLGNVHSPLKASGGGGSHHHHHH

GC33 (antibody)
pKd [1]: 8.87 | koff [1]: 0.000111 s⁻¹ | kon [1]: 82600 M⁻¹ s⁻¹ | pEC50 [2]: 10.22 | pEC50 [3]: 10.13 | pEC50 [4]: 9.80 | pEC50 [5]: 8.56 | pKd [6]: 8.38 | koff [6]: 0.000229 s⁻¹ | kon [6]: 54900 M⁻¹ s⁻¹ | EC50 (read off the curve) [7]: 0.03 nM | EC50 (read off the curve) [8]: 0.03 nM | pKd [9]: 8.99 | koff [9]: 0.000185 s⁻¹ | kon [9]: 181000 M⁻¹ s⁻¹ | pKd [10]: 8.20 | koff [10]: 0.000429 s⁻¹ | kon [10]: 67200 M⁻¹ s⁻¹ | EC50 (read off the curve) [11]: 4 nM

KLH×CD3 (bispecific antibody)
pEC50 [12]: 7.57 | pEC50 [13]: 7.11 | pEC50 [14]: 7.08

OKT3-hIgG1 (antibody)
pEC50 [12]: 9.57
